Test results taken from publication PMC12057046 (2025).

B1: GST-tagged USP8 MIT domain (1-142) [human] / Girdin 1192-1207 peptide, cellulose-bound (SPOT array) [human] (parent complex)
chain 1: MPAVASVPKELYLSSSLKDLNKKTEVKPEKISTKSYVHSALKIFKTAEECRLDRDEERAYVLYMKYVTVYNLIKKRPDFKQQQDYFHSILGPGNIKKAVEEAERLSESLKLRYEEAEVRKKLEEKDRQEEAQRLQQKRQETG
chain 2: EVEHRDLEDRYNQLLK
B2: GST-tagged USP8 MIT domain (1-142) [human] / DBP 116-131 peptide, cellulose-bound (SPOT array) [human] (parent complex)
chain 1: B1 chain 1
chain 2: YVDLDAFLLEHGLPPS
B3: GST-tagged USP8 MIT domain (1-142) [human] / DNAJB6 118-130 peptide, cellulose-bound (SPOT array) [not stated] (parent complex)
chain 1: B1 chain 1
chain 2: PFEDFFGNRRGPR
B4: GST-tagged USP8 MIT domain (1-142) [human] / Cadherin-1 863-877 peptide, cellulose-bound (SPOT array) [not stated] (parent complex)
chain 1: B1 chain 1
chain 2: NEWGNRFKKLADMYG

Variants of: B1
Assay: SPOT array alanine scanning; read off a plot

Variant | screen value
chain 2 EVEHRDLADRYNQLLK [chain 2 E8A] | ~-72%
chain 2 EVEHRALEDRYNQLLK [chain 2 D6A] | ~40%
chain 2 EVEHRDAEDRYNQLLK [chain 2 L7A] | ~-100%
chain 2 EVEHRDLEDRANQLLK [chain 2 Y11A] | ~-100%
chain 2 EVEHRDLEDRYNALLK [chain 2 Q13A] | ~28%
chain 2 EVEARDLEDRYNQLLK [chain 2 H4A] | ~65%
chain 2 EVAHRDLEDRYNQLLK [chain 2 E3A] | ~80%
chain 2 EVEHRDLEDRYNQLAK [chain 2 L15A] | ~-81%
chain 2 EAEHRDLEDRYNQLLK [chain 2 V2A] | ~69%
chain 2 EVEHRDLEDAYNQLLK [chain 2 R10A] | ~-92%
chain 2 EVEHRDLEDRYNQALK [chain 2 L14A] | ~-94%
chain 2 AVEHRDLEDRYNQLLK [chain 2 E1A] | ~50%
chain 2 EVEHRDLEARYNQLLK [chain 2 D9A] | ~58%
chain 2 EVEHRDLEDRYAQLLK [chain 2 N12A] | ~-37%
chain 2 EVEHRDLEDRYNQLLA [chain 2 K16A] | ~120%
chain 2 EVEHADLEDRYNQLLK [chain 2 R5A] | ~48%

Variants of: B2
Assay: SPOT array alanine scanning; read off a plot

Variant | screen value
chain 2 YVDLAAFLLEHGLPPS [chain 2 D5A] | ~-100%
chain 2 YVDLDAFLAEHGLPPS [chain 2 L9A] | ~98%
chain 2 YVDLDAFLLAHGLPPS [chain 2 E10A] | ~-94%
chain 2 YVDLDAALLEHGLPPS [chain 2 F7A] | ~-72%
chain 2 YVALDAFLLEHGLPPS [chain 2 D3A] | ~-84%
chain 2 YVDADAFLLEHGLPPS [chain 2 L4A] | ~-52%
chain 2 YVDLDAFLLEHGLPPA [chain 2 S16A] | ~12%
chain 2 YVDLDAFLLEHGLPAS [chain 2 P15A] | ~19%
chain 2 YVDLDGFLLEHGLPPS [chain 2 A6G] | ~-38%
chain 2 YADLDAFLLEHGLPPS [chain 2 V2A] | ~98%
chain 2 AVDLDAFLLEHGLPPS [chain 2 Y1A] | ~110%
chain 2 YVDLDAFALEHGLPPS [chain 2 L8A] | ~-20%
chain 2 YVDLDAFLLEAGLPPS [chain 2 H11A] | ~-79%

Variants of: B3
Assay: SPOT array alanine scanning; read off a plot

Variant | screen value
chain 2 PFEDFFGNRRGPA [chain 2 R13A] | ~20%
chain 2 PFEDFFGNRAGPR [chain 2 R10A] | ~-29%
chain 2 PFEAFFGNRRGPR [chain 2 D4A] | ~-88%
chain 2 PFEDFFGNARGPR [chain 2 R9A] | ~-19%
chain 2 PAEDFFGNRRGPR [chain 2 F2A] | ~10%
chain 2 PFEDFFGNRRAPR [chain 2 G11A] | ~-39%
chain 2 PFEDFFGNRRGAR [chain 2 P12A] | ~-17%
chain 2 PFEDFAGNRRGPR [chain 2 F6A] | ~-67%
chain 2 PFEDAFGNRRGPR [chain 2 F5A] | ~-63%
chain 2 AFEDFFGNRRGPR [chain 2 P1A] | ~30%
chain 2 PFEDFFANRRGPR [chain 2 G7A] | ~-40%
chain 2 PFEDFFGARRGPR [chain 2 N8A] | ~-48%
chain 2 PFADFFGNRRGPR [chain 2 E3A] | ~-46%

Variants of: B4
Assay: SPOT array alanine scanning; read off a plot

Variant | screen value
chain 2 NEWGARFKKLADMYG [chain 2 N5A] | ~-34%
chain 2 NEWGNRFKKLAAMYG [chain 2 D12A] | ~-56%
chain 2 AEWGNRFKKLADMYG [chain 2 N1A] | ~-9%
chain 2 NEWANRFKKLADMYG [chain 2 G4A] | ~-39%
chain 2 NEWGNRFKKAADMYG [chain 2 L10A] | ~-62%
chain 2 NEWGNRFKKLADAYG [chain 2 M13A] | ~-22%
chain 2 NEWGNAFKKLADMYG [chain 2 R6A] | ~-98%
chain 2 NEWGNRFAKLADMYG [chain 2 K8A] | ~-65%
chain 2 NEWGNRFKKLGDMYG [chain 2 A11G] | ~-32%
chain 2 NEAGNRFKKLADMYG [chain 2 W3A] | ~-100%
chain 2 NAWGNRFKKLADMYG [chain 2 E2A] | ~-57%
chain 2 NEWGNRFKALADMYG [chain 2 K9A] | ~-70%
chain 2 NEWGNRFKKLADMYA [chain 2 G15A] | ~-57%
chain 2 NEWGNRAKKLADMYG [chain 2 F7A] | ~-100%
chain 2 NEWGNRFKKLADMAG [chain 2 Y14A] | ~-44%
